Experimental data taken from patent US20140329275A1, “BIOCATALYSIS CELLS AND METHODS” (REGENTS OF THE UNIVERSITY OF MINNESOTA, priority 2011, published 2014).

Substrate: CC(C)CC=O
Test: Enzymatic assay of PadA
Format: biochemical, E. coli
Conditions: other: 0.5 mM NAD+, pH 8.0, 25 nM PadA
Experimental: Protein concentration was measured by UV absorbance at 280 nm. […] Enzymatic reactions were initiated by adding 25 nM PadA. The reactions were monitored by measuring the UV absorbance at 340 nm (extinction coefficient, 6.22 mM^−1 cm^−1) as a consequence of NADH generation.

B1: PadA (Escherichia coli K-12) (protein)
chain: MTEPHVAVLSQVQQFLDRQHGLYIDGRPGPAQSEKRLAIFDPATGQEIASTADANEADVDNAVMSAWRAFVSRRWAGRLPAERERILLRFADLVEQHSEELAQLETLEQGKSIAISRAFEVGCTLNWMRYTAGLTTKIAGKTLDLSIPLPQGARYQAWTRKEPVGVVAGIVPWNFPLMIGMWKVMPALAAGCSIVIKPSETTPLTMLRVAELASEAGIPDGVFNVVTGSGAVCGAALTSHPHVAKISFTGSTATGKGIARTAADHLTRVTLELGGKNPAIVLKDADPQWVIEGLMTGSFLNQGQVCAASSRIYIEAPLFDTLVSGFEQAVKSLQVGPGMSPVAQINPLVSRAHCDKVCSFLDDAQAQQAELIRGSNGPAGEGYYVAPTLVVNPDAKLRLTREEVFGPVVNLVRVADGEEALQLANDTEYGLTASVWTQNLSQALEYSDRLQAGTVWVNSHTLIDANLPFGGMKQSGTGRDFGPDWLDGWCETKSVCVRY
notes: made in house
Km: 1946 µM
kcat: 18.6 s⁻¹
